Drawing on the Immune Epitope Database (IEDB), this text covers Kd for 6 sequences.

A value given as a limit tells only on which side of the number the result lay.

In one assay the target is HLA-B*27:05. The assay is described as follows: IEDB peptide-MHC binding, purified MHC/direct/fluorescence; filed as Kd, often an IC50 or EC50 that approximates it; ≥ and ≤ were set here for values at or beyond the usual limits of such assays.
Another assay addresses HLA-B*48:01. The assay is described as above.
For a further assay, the target named is HLA-B*73:01. Described as above.
For a further assay, the target named is HLA-C*06:02. The description is as above.
The target of the next assay is HLA-C*14:02. The assay is described as above. The following applies: source organism: Human immunodeficiency virus 1.
Another assay deals with HLA-C*15:02. Described as above. The following applies: source organism: Human immunodeficiency virus 1.
For a further assay, the target named is HLA-A*02:01. The assay is described as above.
The target in a further assay is HLA-A*02:03. The description is as above. The following applies: source organism: Mycobacterium tuberculosis str. Haarlem.
In a further assay the target is HLA-A*02:11. The assay is described as above. The following applies: source organism: Mycobacterium tuberculosis str. Haarlem.
For another assay, the target named is HLA-A*02:12. The assay is described as above. The following applies: source organism: Mycobacterium tuberculosis str. Haarlem.
Another assay has as its target HLA-A*02:16. The assay is described as above. The following applies: source organism: Mycobacterium tuberculosis str. Haarlem.
The next assay concerns the target HLA-A*02:19. Described as above. The following applies: source organism: Mycobacterium tuberculosis str. Haarlem.
For a further assay, the target named is HLA-A*03:01. The description is as above. The following applies: source organism: Mycobacterium tuberculosis str. Haarlem.
The target in the next assay is HLA-A*24:03. The assay is described as above. The following applies: source organism: Mycobacterium tuberculosis str. Haarlem.
The target in a further assay is HLA-A*26:01. The description is as above. The following applies: source organism: Mycobacterium tuberculosis str. Haarlem.
A further assay has as its target HLA-A*29:02. The assay is described as above. The following applies: source organism: Mycobacterium tuberculosis str. Haarlem.
The target of the next assay is HLA-B*07:02. The assay is described as above.
In a further assay the target is HLA-B*15:01. The description is as above.
The target in the next assay is HLA-B*18:01. Described as above.
The next assay addresses HLA-B*27:03. Described as above. The following applies: source organism: Mycobacterium tuberculosis str. Haarlem.
The target in a further assay is HLA-B*35:01. The assay is described as above. The following applies: source organism: Mycobacterium tuberculosis str. Haarlem.
A further assay concerns the target HLA-B*39:01. The assay is described as above. The following applies: source organism: Mycobacterium tuberculosis str. Haarlem.
The next assay deals with HLA-B*46:01. The assay is described as above.
The next assay deals with HLA-B*51:01. The assay is described as above. The following applies: source organism: Mycobacterium tuberculosis str. Haarlem.
A further assay has as its target HLA-B*57:01. Described as above.
The target in the next assay is HLA-B*15:42. The assay is described as follows: IEDB peptide-MHC binding, purified MHC/competitive/fluorescence; filed as Kd, often an IC50 or EC50 that approximates it; ≥ and ≤ were set here for values at or beyond the usual limits of such assays. The following applies: source organism: Homo sapiens.
A further assay has as its target HLA-B*45:06. The assay is described as above. The following applies: source organism: Homo sapiens.
The next assay addresses HLA-B*83:01. The description is as above. The following applies: source organism: Homo sapiens.
In a further assay the target is HLA-A*69:01. As to the kind of experiment: IEDB peptide-MHC binding, purified MHC/direct/fluorescence; filed as Kd, often an IC50 or EC50 that approximates it; ≥ and ≤ were set here for values at or beyond the usual limits of such assays. The following applies: source organism: Mycobacterium tuberculosis.
A further assay deals with HLA-A*01:01. Described as above. The following applies: source organism: Mycobacterium tuberculosis.
Another assay addresses HLA-A*11:01. The assay is described as above. The following applies: source organism: Mycobacterium tuberculosis.
A further assay concerns the target HLA-A*31:01. The description is as above. The following applies: source organism: Mycobacterium tuberculosis.
The target of a further assay is HLA-A*68:02. The assay is described as above. The following applies: source organism: Mycobacterium tuberculosis.
Another assay deals with HLA-B*15:17. The assay is described as above. The following applies: source organism: Mycobacterium tuberculosis.
A further assay deals with HLA-B*40:01. The description is as above. The following applies: source organism: Mycobacterium tuberculosis.
Another assay concerns the target HLA-B*58:01. The description is as above. The following applies: source organism: Mycobacterium tuberculosis.
For a further assay, the target named is HLA-A*26:03. The assay is described as follows: IEDB peptide-MHC binding, purified MHC/competitive/fluorescence; filed as Kd, often an IC50 or EC50 that approximates it; ≥ and ≤ were set here for values at or beyond the usual limits of such assays. The following applies: source organism: Mycobacterium tuberculosis C.
The mark [1] stands for this setting: source organism: Yersinia enterocolitica.
Setting [2] is: source organism: Mycobacterium tuberculosis str. Haarlem.
Setting [3] is: source organism: Mycobacterium tuberculosis.

As usually defined, the Kd is a measure of binding affinity in units of concentration. Lower therefore signals a tighter complex. Consider YRLVSAVEK, for which the values for the Kd with HLA-B*27:05 (setting [1]), with HLA-B*48:01 (setting [1]) and in the assay with HLA-B*73:01 (setting [1]) were 0.0299 µM, at least 20 µM and at least 20 µM, respectively.
Turning to RMYSPVSIL, the dissociation constant (Kd) with HLA-C*06:02 (source organism: Human immunodeficiency virus 1) stood at 3.11 µM; in the assay with HLA-C*14:02, 0.701 µM; with HLA-C*15:02 it was 0.686 µM.
For the sequence WASGVPAAT, the equilibrium dissociation constant (Kd) with HLA-A*02:01 (setting [2]), with HLA-A*02:03, in the assay with HLA-A*02:11, in the assay with HLA-A*02:12, with HLA-A*02:16 and with HLA-A*02:19 was at least 20 µM in each case. For the same sequence, the Kd is at least 20 µM in the assay with HLA-A*03:01; at least 20 µM with HLA-A*24:03; at least 20 µM with HLA-A*26:01; at least 20 µM with HLA-A*29:02; 6.5 µM with HLA-B*07:02 (setting [2]); at least 20 µM with HLA-B*15:01 (setting [2]). For the same sequence, the equilibrium dissociation constant (Kd) in the assay with HLA-B*18:01 (setting [2]) is at least 20 µM; with HLA-B*27:03, at least 20 µM; with HLA-B*35:01, 0.317 µM; with HLA-B*39:01, at least 20 µM; in the assay with HLA-B*46:01 (setting [2]), at least 20 µM; in the assay with HLA-B*51:01, at least 20 µM. In the assay with HLA-B*57:01 (setting [2]), this sequence had an equilibrium dissociation constant (Kd) of at least 20 µM.
In the case of YEHYFVFAA, the equilibrium dissociation constant (Kd) with HLA-B*73:01 (source organism: Homo sapiens) is 0.0226 µM; with HLA-B*15:42, at least 5 µM; in the assay with HLA-B*45:06 it was 0.379 µM; with HLA-B*83:01 it was at least 5 µM.
For YLYDETQDV, the Kd came out at 0.002 µM with HLA-A*02:03, 0.006 µM in the assay with HLA-A*02:12, 1.24 µM with HLA-A*69:01 and 0.041 µM in the assay with HLA-C*06:02 (source organism: Mycobacterium tuberculosis variant bovis BCG str. Pasteur 1173P2).
On to QINELHHSK, for which the Kd in the assay with HLA-A*01:01 is at least 20 µM; with HLA-A*02:01 (setting [3]) it was at least 20 µM; in the assay with HLA-A*11:01, 0.0685 µM; with HLA-A*31:01, 0.335 µM; with HLA-A*68:02, at least 20 µM; in the assay with HLA-B*07:02 (setting [3]) it was at least 20 µM. For the same sequence, the equilibrium dissociation constant (Kd) in the assay with HLA-B*15:01 (setting [3]), in the assay with HLA-B*15:17, in the assay with HLA-B*18:01 (setting [3]), with HLA-B*27:05 (setting [3]), with HLA-B*40:01 and in the assay with HLA-B*46:01 (setting [3]) was at least 20 µM throughout. In addition, the equilibrium dissociation constant (Kd) with HLA-B*48:01 (setting [3]), with HLA-B*57:01 (setting [3]), with HLA-B*58:01 and with HLA-A*26:03 was at least 20 µM each time.
